These results are taken from PMC4335062, “Data-Driven Prediction and Design of bZIP Coiled-Coil Interactions” (PLoS Computational Biology, 2015).

One experiment has as its target CREBZF (human) (UniProt Q9NS37). Kind of experiment: FRET or BRET; direct-binding FRET in 384-well plates; rhodamine-labelled design (acceptor) titrated 0 to 1 uM into 10 nM fluorescein-labelled bZIP (donor); 150 mM KCl, 50 mM potassium phosphate pH 7.4, 0.1% Tween-20, 0.1% BSA; 23 °C. In general terms: Bioluminescence resonance energy transfer reports proximity on the nanometre scale.

Experiment [1] addresses T1, JUN (Homo sapiens, UniProt P05412). The experiment is described as above.
Another experiment concerns the target BATF3 (human) (UniProt Q9NR55). Briefly: FRET or BRET; direct-binding FRET in 384-well plates; rhodamine-labelled design (acceptor) titrated 0 to 1 uM into 10 nM fluorescein-labelled bZIP (donor); 150 mM KCl, 50 mM potassium phosphate pH 7.4, 0.1% Tween-20, 0.1% BSA; 37 °C.
In a further experiment the target is FOS (Homo sapiens, UniProt P01100). The description is as above.
For another experiment, the target named is HLF (human) (UniProt Q16534). The experiment is described as above.
The target of experiment [2] is T1, JUN. The experiment is described as above.
The next experiment addresses NFE2L1 (Homo sapiens, UniProt Q14494). The description is as above.
Experiment [3] concerns the target T2, ATF6B (Homo sapiens, UniProt Q99941). Kind of experiment: FRET or BRET; direct-binding FRET in 384-well plates; rhodamine-labelled design (acceptor) titrated 0 to 1 uM into 10 nM fluorescein-labelled bZIP (donor); 150 mM KCl, 50 mM potassium phosphate pH 7.4, 0.1% Tween-20, 0.1% BSA; 23 °C.
For the next experiment, the target named is MAF (Homo sapiens, UniProt O75444). The description is as above.
The target in experiment [4] is NFE2L3 (human) (UniProt Q9Y4A8). The experiment is described as above.
The target of another experiment is NFIL3 (human) (UniProt Q16649). The description is as above.
The target in the next experiment is ATF2 (human) (UniProt P15336). Kind of experiment: FRET or BRET; direct-binding FRET in 384-well plates; rhodamine-labelled design (acceptor) titrated 0 to 1 uM into 10 nM fluorescein-labelled bZIP (donor); 150 mM KCl, 50 mM potassium phosphate pH 7.4, 0.1% Tween-20, 0.1% BSA; 37 °C.
The target of experiment [5] is T2, ATF6B. The experiment is described as above.
For experiment [6], the target named is Activating Transcription Factor (ATF) 3 (human) (UniProt P18847). Described as above.
Another experiment concerns the target MAFG (Homo sapiens, UniProt O15525). The description is as above.
In experiment [7] the target is NFE2L3 (human) (UniProt Q9Y4A8). The description is as above.
Experiment [8] concerns the target X-box binding protein 1 (human) (UniProt P17861). The description is as above.

Where no end group is shown, it is not given here.

Chain of NFE2L3 (human) (Q9Y4A8 whole entry): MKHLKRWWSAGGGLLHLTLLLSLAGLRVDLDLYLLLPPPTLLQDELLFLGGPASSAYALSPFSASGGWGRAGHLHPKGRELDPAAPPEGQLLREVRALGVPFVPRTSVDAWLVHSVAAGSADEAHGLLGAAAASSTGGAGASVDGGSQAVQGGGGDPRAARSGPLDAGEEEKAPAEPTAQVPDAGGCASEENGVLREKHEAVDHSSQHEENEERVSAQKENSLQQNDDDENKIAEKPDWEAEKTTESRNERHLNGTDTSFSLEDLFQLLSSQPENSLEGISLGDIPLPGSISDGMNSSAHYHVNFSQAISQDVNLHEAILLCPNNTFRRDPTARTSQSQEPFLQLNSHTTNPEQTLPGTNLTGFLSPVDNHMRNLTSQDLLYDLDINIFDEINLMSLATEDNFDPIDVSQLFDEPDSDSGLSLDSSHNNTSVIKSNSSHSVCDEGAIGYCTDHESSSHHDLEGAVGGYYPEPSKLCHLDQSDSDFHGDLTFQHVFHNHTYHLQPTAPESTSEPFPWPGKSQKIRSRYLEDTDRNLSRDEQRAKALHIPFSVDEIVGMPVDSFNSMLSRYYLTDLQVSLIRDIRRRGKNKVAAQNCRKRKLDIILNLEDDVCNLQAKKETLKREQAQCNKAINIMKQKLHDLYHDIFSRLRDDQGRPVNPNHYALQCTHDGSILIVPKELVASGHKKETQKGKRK
T2 sequence (Q99941 whole entry): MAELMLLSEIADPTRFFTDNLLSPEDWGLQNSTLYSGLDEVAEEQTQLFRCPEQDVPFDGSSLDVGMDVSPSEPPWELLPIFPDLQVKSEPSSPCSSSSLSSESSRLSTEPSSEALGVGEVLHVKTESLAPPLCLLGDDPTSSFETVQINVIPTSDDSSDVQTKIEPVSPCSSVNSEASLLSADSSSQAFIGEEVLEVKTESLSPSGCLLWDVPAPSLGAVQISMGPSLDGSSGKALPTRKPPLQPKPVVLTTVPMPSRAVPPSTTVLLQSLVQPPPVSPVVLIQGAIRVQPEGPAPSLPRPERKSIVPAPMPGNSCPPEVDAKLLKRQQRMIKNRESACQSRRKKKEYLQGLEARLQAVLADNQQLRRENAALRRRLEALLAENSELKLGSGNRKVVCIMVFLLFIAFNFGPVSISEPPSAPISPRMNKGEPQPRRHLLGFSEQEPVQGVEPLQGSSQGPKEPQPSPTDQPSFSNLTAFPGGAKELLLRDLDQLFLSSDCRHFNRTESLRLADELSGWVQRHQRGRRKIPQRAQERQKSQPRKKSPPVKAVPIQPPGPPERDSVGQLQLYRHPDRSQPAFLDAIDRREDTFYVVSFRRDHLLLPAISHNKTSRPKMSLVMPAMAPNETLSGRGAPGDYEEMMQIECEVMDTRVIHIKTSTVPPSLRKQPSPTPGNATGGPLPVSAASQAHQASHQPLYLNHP
T1 sequence (P05412 whole entry): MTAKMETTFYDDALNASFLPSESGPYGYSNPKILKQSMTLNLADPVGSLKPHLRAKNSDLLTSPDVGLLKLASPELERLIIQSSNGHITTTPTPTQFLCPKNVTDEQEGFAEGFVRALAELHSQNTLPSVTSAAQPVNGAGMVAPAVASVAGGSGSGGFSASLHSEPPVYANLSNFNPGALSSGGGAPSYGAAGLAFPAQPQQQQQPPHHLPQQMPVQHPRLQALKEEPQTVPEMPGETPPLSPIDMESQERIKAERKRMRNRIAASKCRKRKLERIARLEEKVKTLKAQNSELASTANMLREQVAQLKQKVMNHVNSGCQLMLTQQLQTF
Chain of HLF (human) (Q16534 whole entry): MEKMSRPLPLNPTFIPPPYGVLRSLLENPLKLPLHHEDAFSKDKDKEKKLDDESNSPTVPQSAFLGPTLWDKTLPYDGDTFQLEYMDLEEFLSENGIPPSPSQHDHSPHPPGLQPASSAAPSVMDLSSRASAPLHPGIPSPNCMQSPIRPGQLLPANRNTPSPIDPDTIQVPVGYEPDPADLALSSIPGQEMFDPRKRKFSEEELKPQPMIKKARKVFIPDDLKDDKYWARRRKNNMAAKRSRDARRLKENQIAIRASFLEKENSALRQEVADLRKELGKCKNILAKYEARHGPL
Chain of ATF2 (human) (P15336 whole entry): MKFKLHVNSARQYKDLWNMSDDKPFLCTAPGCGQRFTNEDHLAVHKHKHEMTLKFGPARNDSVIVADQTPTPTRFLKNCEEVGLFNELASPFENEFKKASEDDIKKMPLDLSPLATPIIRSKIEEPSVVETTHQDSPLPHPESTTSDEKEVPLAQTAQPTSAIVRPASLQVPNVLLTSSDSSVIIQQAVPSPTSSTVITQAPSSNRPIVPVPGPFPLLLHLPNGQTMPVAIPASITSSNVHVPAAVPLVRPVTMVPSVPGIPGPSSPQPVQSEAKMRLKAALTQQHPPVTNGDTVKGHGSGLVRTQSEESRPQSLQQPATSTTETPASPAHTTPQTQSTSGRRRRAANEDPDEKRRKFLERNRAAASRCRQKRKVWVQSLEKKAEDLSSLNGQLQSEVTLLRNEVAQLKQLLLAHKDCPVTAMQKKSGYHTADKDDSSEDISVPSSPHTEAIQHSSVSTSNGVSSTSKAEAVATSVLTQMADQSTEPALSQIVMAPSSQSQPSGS
Chain of FOS (P01100 whole entry): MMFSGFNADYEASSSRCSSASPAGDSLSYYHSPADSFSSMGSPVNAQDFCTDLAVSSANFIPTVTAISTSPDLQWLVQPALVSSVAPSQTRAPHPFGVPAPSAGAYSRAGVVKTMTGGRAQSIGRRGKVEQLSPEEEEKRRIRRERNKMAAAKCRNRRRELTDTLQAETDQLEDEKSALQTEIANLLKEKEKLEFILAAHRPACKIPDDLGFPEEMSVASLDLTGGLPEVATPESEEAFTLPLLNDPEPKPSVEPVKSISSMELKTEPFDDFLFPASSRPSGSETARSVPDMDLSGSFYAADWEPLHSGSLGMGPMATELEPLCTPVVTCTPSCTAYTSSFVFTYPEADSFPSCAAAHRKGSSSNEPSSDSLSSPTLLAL
Chain of NFE2L1 (Q14494 whole entry): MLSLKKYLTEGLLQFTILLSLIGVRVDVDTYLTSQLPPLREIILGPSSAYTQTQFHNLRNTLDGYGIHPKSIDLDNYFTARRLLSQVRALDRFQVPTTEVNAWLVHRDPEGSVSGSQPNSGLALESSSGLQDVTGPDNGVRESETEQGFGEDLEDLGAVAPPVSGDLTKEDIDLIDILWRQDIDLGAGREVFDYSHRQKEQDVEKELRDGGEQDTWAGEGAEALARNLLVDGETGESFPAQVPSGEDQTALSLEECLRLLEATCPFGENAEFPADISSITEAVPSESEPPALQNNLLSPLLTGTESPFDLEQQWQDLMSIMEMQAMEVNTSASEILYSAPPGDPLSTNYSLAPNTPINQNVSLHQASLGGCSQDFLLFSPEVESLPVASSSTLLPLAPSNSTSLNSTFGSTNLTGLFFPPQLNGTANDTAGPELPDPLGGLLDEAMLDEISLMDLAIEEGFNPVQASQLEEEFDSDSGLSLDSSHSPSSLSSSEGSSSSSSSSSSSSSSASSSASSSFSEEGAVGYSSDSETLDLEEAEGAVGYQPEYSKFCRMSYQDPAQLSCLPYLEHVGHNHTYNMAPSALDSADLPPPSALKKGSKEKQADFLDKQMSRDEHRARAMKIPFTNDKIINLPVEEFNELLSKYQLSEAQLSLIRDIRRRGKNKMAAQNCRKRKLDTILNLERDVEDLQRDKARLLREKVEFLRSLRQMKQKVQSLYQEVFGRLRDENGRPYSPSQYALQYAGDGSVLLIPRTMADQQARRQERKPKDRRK
Chain of MAF (O75444 whole entry): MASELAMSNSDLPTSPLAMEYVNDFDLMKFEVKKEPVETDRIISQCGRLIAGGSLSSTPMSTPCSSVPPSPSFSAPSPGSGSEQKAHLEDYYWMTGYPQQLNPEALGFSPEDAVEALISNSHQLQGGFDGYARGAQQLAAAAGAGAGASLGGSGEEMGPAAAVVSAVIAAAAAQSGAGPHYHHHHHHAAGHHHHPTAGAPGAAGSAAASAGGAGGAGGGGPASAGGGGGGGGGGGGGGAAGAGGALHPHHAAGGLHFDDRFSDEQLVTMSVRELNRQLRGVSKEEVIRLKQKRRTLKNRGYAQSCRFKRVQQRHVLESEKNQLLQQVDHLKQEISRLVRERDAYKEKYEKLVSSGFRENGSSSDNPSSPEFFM
Chain of MAFG (O15525 whole entry): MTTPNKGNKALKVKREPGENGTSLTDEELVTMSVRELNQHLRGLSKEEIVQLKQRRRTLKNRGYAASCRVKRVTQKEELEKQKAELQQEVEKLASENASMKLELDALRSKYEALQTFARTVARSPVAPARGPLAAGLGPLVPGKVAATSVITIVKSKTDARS
Chain of CREBZF (human) (Q9NS37 whole entry): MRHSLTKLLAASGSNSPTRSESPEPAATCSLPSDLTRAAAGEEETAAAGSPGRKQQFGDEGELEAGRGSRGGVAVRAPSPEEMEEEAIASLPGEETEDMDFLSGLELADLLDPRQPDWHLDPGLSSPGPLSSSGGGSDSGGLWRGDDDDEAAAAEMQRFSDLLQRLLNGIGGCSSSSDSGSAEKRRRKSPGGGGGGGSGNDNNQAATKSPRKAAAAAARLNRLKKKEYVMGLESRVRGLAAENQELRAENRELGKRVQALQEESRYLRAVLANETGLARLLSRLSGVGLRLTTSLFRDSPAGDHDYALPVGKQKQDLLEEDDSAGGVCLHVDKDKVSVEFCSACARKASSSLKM
Chain of BATF3 (human) (Q9NR55 whole entry): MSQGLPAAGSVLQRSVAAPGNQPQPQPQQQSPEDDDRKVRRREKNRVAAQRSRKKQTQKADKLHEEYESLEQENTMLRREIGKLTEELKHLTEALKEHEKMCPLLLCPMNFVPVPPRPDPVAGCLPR
Chain of Activating Transcription Factor (ATF) 3 (human) (P18847 whole entry): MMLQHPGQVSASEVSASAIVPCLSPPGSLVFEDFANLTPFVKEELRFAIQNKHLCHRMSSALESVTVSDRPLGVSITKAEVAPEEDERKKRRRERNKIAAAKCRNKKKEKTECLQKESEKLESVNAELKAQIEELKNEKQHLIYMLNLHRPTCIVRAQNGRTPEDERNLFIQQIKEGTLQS

B1: ATF5-d1 labeled at the C-terminus (designed binder)
chain: GESKEYKKGSGSKRIAYLRQRIAELRNENHVLESRIQRMEKEKDALQQDRDHLEYELGC(Rhodamine Red C2‑maleimide)
modifications: not fully specified
As to B1, the Kd in the experiment with CREBZF (human), in the experiment with JUN [1], with BATF3 (human), with FOS, in the experiment with HLF (human) and with JUN [2] was > 5 µM in each case. For the same molecule, the Kd in the experiment with NFE2L1 is > 5 µM.

B2: ATF4-d1 labeled at the C-terminus (designed binder)
chain: GESKEYKKGSGSNQIKTLRTRLSKLRKDNLQLEKDIANLERKAKDLRAEKEQLEYELGC
modifications: also: C59 label by assay: Rhodamine Red C2-maleimide or fluorescein-5-maleimide
notes: solubility linker after the His6 tag; added to the C-terminus for labeling; one molecule for the rhodamine- and the fluorescein-labelled form; the assay tells which label stood there; also called ATF4-d1-Rhodamine; ATF4-d1-FITC; source: E. coli RP3098, purified (Ni-NTA under denaturing conditions, reverse-phase HPLC)
B2: the Kd in the experiment with ATF6B [3] is 1 µM; with MAF, > 5 µM; with NFE2L3 (human) [4], 1 µM; with NFIL3 (human), > 5 µM; with ATF2 (human) it was > 5 µM; with ATF6B [5] it was > 5 µM. For the same molecule, the Kd (in [6]; in the experiment with MAFG; in the experiment with NFE2L3 (human) [7]; in experiment [8]) was > 5 µM throughout.

The term Kd denotes the equilibrium constant for the complex coming apart. A high value points to lower affinity.
